Reference: patent US20200199204A1 (UNITED STATES OF AMERICA AS REPRESENTED BY THE SECRETARY …, published 2020)

Tests used:
Assay in all cases: cell-based or functional assay
HIV-1 Env of TH976.17 = HIV-1 Env of TH976.17 (HIV-1)
HIV-1 Env of Q23.17 = HIV-1 Env of Q23.17 (HIV-1)
HIV-1 Env of C1080.c3 = HIV-1 Env of C1080.c3 (HIV-1)
HIV-1 Env of Q259.d2.17 = HIV-1 Env of Q259.d2.17 (HIV-1)
HIV-1 Env of Q842.d12 = HIV-1 Env of Q842.d12 (HIV-1)
HIV-1 Env of 96ZM651.02 = HIV-1 Env of 96ZM651.02 (HIV-1)
HIV-1 Env of Q461.e2 = HIV-1 Env of Q461.e2 (HIV-1)
HIV-1 Env of TRJO.58 = HIV-1 Env of TRJO.58 (HIV-1)
HIV-1 Env of TRO.11 = HIV-1 Env of TRO.11 (HIV-1)
HIV-1 Env of CAP256.PI = HIV-1 Env of CAP256.PI (HIV-1)
HIV-1 Env of MB539.2B7 = HIV-1 Env of MB539.2B7 (HIV-1)
HIV-1 Env of ZM214.15 = HIV-1 Env of ZM214.15 (HIV-1)
HIV-1 Env of CAP244.D3 = HIV-1 Env of CAP244.D3 (HIV-1)
HIV-1 Env of Q168.a2 = HIV-1 Env of Q168.a2 (HIV-1)
HIV-1 Env of KER2008.12 = HIV-1 Env of KER2008.12 (HIV-1)
HIV-1 Env of AC10.29 = HIV-1 Env of AC10.29 (HIV-1)
HIV-1 Env of 6535.3 = HIV-1 Env of 6535.3 (HIV-1)
HIV-1 Env of Q769.d22 = HIV-1 Env of Q769.d22 (HIV-1)
HIV-1 Env of KER2018.11 = HIV-1 Env of KER2018.11 (HIV-1)
HIV-1 Env of 0260.v5.c36 = HIV-1 Env of 0260.v5.c36 (HIV-1)
HIV-1 Env of MB201 = HIV-1 Env of MB201 (HIV-1)
HIV-1 Env of QH0692.42 = HIV-1 Env of QH0692.42 (HIV-1)
HIV-1 Env of 6405.v4.c34 = HIV-1 Env of 6405.v4.c34 (HIV-1)
HIV-1 Env of 3016.V5.c36 = HIV-1 Env of 3016.V5.c36 (HIV-1)
HIV-1 Env of CM244.ec1 = HIV-1 Env of CM244.ec1 (HIV-1)
HIV-1 Env of THRO.18 = HIV-1 Env of THRO.18 (HIV-1)
HIV-1 Env of RW020.2 = HIV-1 Env of RW020.2 (HIV-1)
HIV-1 Env of REJO.67 = HIV-1 Env of REJO.67 (HIV-1)
HIV-1 Env of ZM109.4 = HIV-1 Env of ZM109.4 (HIV-1)
HIV-1 Env of RHPA.7 = HIV-1 Env of RHPA.7 (HIV-1)
HIV-1 Env of WITO.33 = HIV-1 Env of WITO.33 (HIV-1)
HIV-1 Env of PVO.04 = HIV-1 Env of PVO.04 (HIV-1)
HIV-1 Env of ZM53.12 = HIV-1 Env of ZM53.12 (HIV-1)
HIV-1 Env of CAP210.E8 = HIV-1 Env of CAP210.E8 (HIV-1)
HIV-1 Env of DU422.01 = HIV-1 Env of DU422.01 (HIV-1)
HIV-1 Env of ZM249.1 = HIV-1 Env of ZM249.1 (HIV-1)
HIV-1 Env of DU172.17 = HIV-1 Env of DU172.17 (HIV-1)
HIV-1 Env of CNE3 = HIV-1 Env of CNE3 (HIV-1)
HIV-1 Env of SC422.8 = HIV-1 Env of SC422.8 (HIV-1)
HIV-1 Env of UG037.8 = HIV-1 Env of UG037.8 (HIV-1)
HIV-1 Env of CAAN.A2 = HIV-1 Env of CAAN.A2 (HIV-1)
HIV-1 Env of DU156.12 = HIV-1 Env of DU156.12 (HIV-1)
HIV-1 Env of CAP45.G3 = HIV-1 Env of CAP45.G3 (HIV-1)
HIV-1 Env of CAP256.SU = HIV-1 Env of CAP256.SU (HIV-1)
HIV-1 Env of ZM197.7 = HIV-1 Env of ZM197.7 (HIV-1)
HIV-1 Env of ZM135.10a = HIV-1 Env of ZM135.10a (HIV-1)
HIV-1 Env of BG505.w6m = HIV-1 Env of BG505.w6m (HIV-1)
HIV-1 Env of ZM233.6 = HIV-1 Env of ZM233.6 (HIV-1)

B1: CAP256-VRC26.27 (antibody, V domains shown)
VH: QKQLVESGGGVVQPGRSLTLSCAASQFPFSHYGMHWVRQAPGKGLEWVASITNDGTKKYHGESVWDRFRISRDNSKNTLFLQMNSLRAEDTALYFCVRDQREDECEEWWSDYYDFGKELPCRKFRGLGLAGIFDIWGHGTMVIVSS
VL: QSVLTQPPSVSAAPGQKVSISCSGNNSNIGNNFISWFQQFPGTAPKPLIYETYRRHSGIPDRFSGSKSGTSATLAITGLQTGDEADYYCATWGVRQGVGALFGTGTKVTVLG
What does the source list for B1?
IC50 (neutralization, TZM-bl) (HIV-1 Env of TH976.17): > 50 µg/mL; IC50 (neutralization, TZM-bl) (HIV-1 Env of Q23.17): > 50 µg/mL; IC50 (neutralization, TZM-bl) (HIV-1 Env of C1080.c3): 0.149 µg/mL; IC50 (neutralization, TZM-bl) (HIV-1 Env of Q259.d2.17): 0.005 µg/mL; IC50 (neutralization, TZM-bl) (HIV-1 Env of Q842.d12): 10.6 µg/mL; IC50 (neutralization, TZM-bl) (HIV-1 Env of 96ZM651.02): 0.047 µg/mL; IC50 (neutralization, TZM-bl) (HIV-1 Env of Q461.e2): 0.014 µg/mL; IC50 (neutralization, TZM-bl) (HIV-1 Env of TRJO.58): > 50 µg/mL; IC50 (neutralization, TZM-bl) (HIV-1 Env of TRO.11): > 50 µg/mL; IC50 (neutralization, TZM-bl) (HIV-1 Env of CAP256.PI): > 50 µg/mL; IC50 (neutralization, TZM-bl) (HIV-1 Env of MB539.2B7): 1.15 µg/mL; IC50 (neutralization, TZM-bl) (HIV-1 Env of ZM214.15): 3.86 µg/mL; IC50 (neutralization, TZM-bl) (HIV-1 Env of CAP244.D3): > 50 µg/mL; IC50 (neutralization, TZM-bl) (HIV-1 Env of Q168.a2): 0.003 µg/mL; IC50 (neutralization, TZM-bl) (HIV-1 Env of KER2008.12): 11.3 µg/mL; IC50 (neutralization, TZM-bl) (HIV-1 Env of AC10.29): > 50 µg/mL; IC50 (neutralization, TZM-bl) (HIV-1 Env of 6535.3): > 50 µg/mL; IC50 (neutralization, TZM-bl) (HIV-1 Env of Q769.d22): > 50 µg/mL; IC50 (neutralization, TZM-bl) (HIV-1 Env of KER2018.11): 0.001 µg/mL; IC50 (neutralization, TZM-bl) (HIV-1 Env of 0260.v5.c36): 2.1 µg/mL; IC50 (neutralization, TZM-bl) (HIV-1 Env of MB201): > 50 µg/mL; IC50 (neutralization, TZM-bl) (HIV-1 Env of QH0692.42): > 50 µg/mL; IC50 (neutralization, TZM-bl) (HIV-1 Env of 6405.v4.c34): > 50 µg/mL; IC50 (neutralization, TZM-bl) (HIV-1 Env of 3016.V5.c36): 0.006 µg/mL; IC50 (neutralization, TZM-bl) (HIV-1 Env of CM244.ec1): 0.056 µg/mL; IC50 (neutralization, TZM-bl) (HIV-1 Env of THRO.18): 1.23 µg/mL; IC50 (neutralization, TZM-bl) (HIV-1 Env of RW020.2): > 50 µg/mL; IC50 (neutralization, TZM-bl) (HIV-1 Env of REJO.67): > 50 µg/mL; IC50 (neutralization, TZM-bl) (HIV-1 Env of ZM109.4): 0.027 µg/mL; IC50 (neutralization, TZM-bl) (HIV-1 Env of RHPA.7): > 50 µg/mL; IC50 (neutralization, TZM-bl) (HIV-1 Env of WITO.33): > 50 µg/mL; IC50 (neutralization, TZM-bl) (HIV-1 Env of PVO.04): 0.371 µg/mL; IC50 (neutralization, TZM-bl) (HIV-1 Env of ZM53.12): < 0.0006 µg/mL; IC50 (neutralization, TZM-bl) (HIV-1 Env of CAP210.E8): 0.002 µg/mL; IC50 (neutralization, TZM-bl) (HIV-1 Env of DU422.01): 0.015 µg/mL; IC50 (neutralization, TZM-bl) (HIV-1 Env of ZM249.1): 0.004 µg/mL; IC50 (neutralization, TZM-bl) (HIV-1 Env of DU172.17): 4.36 µg/mL; IC50 (neutralization, TZM-bl) (HIV-1 Env of CNE3): > 50 µg/mL; IC50 (neutralization, TZM-bl) (HIV-1 Env of SC422.8): 4.86 µg/mL; IC50 (neutralization, TZM-bl) (HIV-1 Env of UG037.8): > 50 µg/mL; IC50 (neutralization, TZM-bl) (HIV-1 Env of CAAN.A2): > 50 µg/mL; IC50 (neutralization, TZM-bl) (HIV-1 Env of DU156.12): 0.006 µg/mL; IC50 (neutralization, TZM-bl) (HIV-1 Env of CAP45.G3): 0.025 µg/mL; IC50 (neutralization, TZM-bl) (HIV-1 Env of CAP256.SU): < 0.0006 µg/mL; IC50 (neutralization, TZM-bl) (HIV-1 Env of ZM197.7): 0.004 µg/mL; IC50 (neutralization, TZM-bl) (HIV-1 Env of ZM135.10a): > 50 µg/mL; IC50 (neutralization, TZM-bl) (HIV-1 Env of BG505.w6m): 0.102 µg/mL; IC50 (neutralization, TZM-bl) (HIV-1 Env of ZM233.6): < 0.0006 µg/mL
